The target in assay [1] is IL-2 portion of the mouse IL-2/IL-2Rα fusion proteins (mouse) (UniProt P04351). In words: cell-based or functional assay.
Assay [2] has as its target recombinant human IL-2 (Peprotech) (human) (UniProt P60568). The assay can be described thus: modified phage ELISA, human IL-2 coated; 2 µg/ml MQ1-17H12 added, then scFv-2 phage (competitor).
The target in assay [3] is mouse IL-2/IL-2Rα fusion proteins (2× and 4× linker lengths). In words: sandwich ELISA (JES6-1A12 capture, JES5H4 detection by the general methods), PSA-treated against buffer-treated fusion protein.

Values joined by “and” are separate entries in the source; they are usually repeats but may differ in a detail not shown here. Identical values can stand only once. Some results are limits rather than exact numbers.

Chain of IL-2 portion of the mouse IL-2/IL-2Rα fusion proteins (mouse) (P04351 21-169 limits assumed): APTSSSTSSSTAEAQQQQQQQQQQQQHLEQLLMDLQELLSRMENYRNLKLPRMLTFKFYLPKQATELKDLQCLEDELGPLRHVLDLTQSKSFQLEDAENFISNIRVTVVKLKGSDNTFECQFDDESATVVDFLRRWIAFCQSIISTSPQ
Chain of recombinant human IL-2 (Peprotech) (human) (P60568 21-153 limits assumed): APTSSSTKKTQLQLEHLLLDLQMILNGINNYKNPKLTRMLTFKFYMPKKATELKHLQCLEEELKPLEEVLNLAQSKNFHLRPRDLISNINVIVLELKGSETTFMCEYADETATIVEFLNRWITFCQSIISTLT

On to “IL-2Rα portion of the mouse IL-2/IL-2Rα fusion proteins (soluble form of the alpha chain of the IL-2 receptor) (from UniProt P01590 22-236)”, for which, in assay [1], the attenuation of IL-2 biologic activity in the intact uncleaved fusion protein against the equivalent amount of free IL-2, CTLL-2 bioassay is over 60 fold; the increase of biologically active IL-2 after PSA cleavage of the fusion protein with the 2× linker, CTLL-2 / MTT assay amounted to 3.5 fold; the increase of biologically active IL-2 after PSA cleavage of the fusion protein with the 4× linker, CTLL-2 / MTT assay was 9 fold.

Take “neutralizing anti-human IL-2 monoclonal antibody MQ1-17H12 (eBioscience)”: the percent blocking of scFv-2 phage binding in assay [2] was 70%.

Turning to “rat anti-mouse IL-2 monoclonal antibody JES6-1A12 (BD Pharmingen)”, the fold increase in the apparent amount of IL-2 detected after PSA cleavage in assay [3] was 2 fold and 4 fold.

(Values after patent US20130089516A1.)
